Results reported in patent US11473073B2, “Aminopeptidases for protein hydrolyzates” (DUPONT NUTRITION BIOSCIENCES APS, priority 2015, dated 2022).

Columns and labels:
Type in all cases: biochemical
[1] = Product inhibition of H-Ala-pNA hydrolysis by amino acid inhibitor mix; conditions: pH 9.0, 30° C.
Method: Sigma cat # D2650). […] […] and proline were dissolved in DMSO. All other amino acids were dissolved in buffer. […] The reaction was started by adding 20 μL substrate. Only one substrate concentration was used per plate.

[2] = tested on: soy protein isolate (SPI); assay: Degree of hydrolysis of pre-hydrolysed soy protein isolate; conditions: 50° C., 20 hr
Method: (§1) The degree of hydrolyses (DH) describes the relative amount of cleaved peptides bounds compared to an acid hydrolyses of the same amount of protein conducted e.g. in 6 M HCL at ˜120° C. for ˜24 h. The higher the DH can therefore be applied to assess the efficiency of amino acid liberation of a general PepN such as a PepN 1 or a PepN 2 type. The cell free culture broth was concentrated (10 kDa cut-off, Sartorius, Göttingen, Germany) and desalted applying a disposal desalting column (PD10, GE, Munchen, Germany) as described by the manufacturer. As substrates were pre-hydrolysed 10% (w/w) Na-caseinate (DMK, Germany), whey protein isolate (WPI; Arla, Viby, Denmark), soy protein isolate (SPI; SUPRO® 760, DuPont, Brabrand, Denmark) and gluten suspensions were applied. The pre-hydrolysis was conducted with 1% (w/wprotein) of FOODPRO® Alkaline Protease, 1% (w/wprotein) FOODPRO® PNL for the Na-Caseinate, the WPI as well as the SPI suspension. All pre-hydrolyses were conducted at 55° C. for 18 h followed by an inactivation step at 95° C. for 20 min. Each applied PepN 2 has been inactivated at 95 C for 15 min as a control of the elimination of any carryover of amino acids from the culture broth to the final hydrolyses as well as for the sufficient inactivation of the applied endopeptidases. The hydrolyses were conducted in a 96-well micro titer plate format and consisted of 150 μL of the pre-hydrolyzed protein suspension combined with 50 μL of a PepN 2 stock solution as indicated in Table 1 below. The hydrolyses were conducted at 50° C. for 20 hr, subsequently, the hydrolysis were stopped by the addition of 20 μL 2 M TCA (Trichloroacetic acid, Sigma-Aldrich, Schnelldorf, Germany). The efficiency of the amino acid liberation of the PepN 2 types from Neosartorya fischeri and Aspergillus clavatus can be seen in Table 1 (B) and (A). […] For the gluten hydrolyses, an increased DH was noticed in the protein range from 0.02-0.3 mg/mL PepN 2.

[3] = tested on: peptide WHWLQLKPGQPMY (SEQ ID NO:26); assay: Hydrolysis of proline containing peptide, LC-MS; conditions: peptide 1 mg/mL, aminopeptidase 1 ug/mL, CPB-Buffer, 55° C.; FIG. 5-7
Method: The peptide […] (SEQ ID NO:26) was hydrolysed with TRI03 and TRI035. The peptide (1 mg/mL) was incubated with 1 ug/mL of the aminopeptidase in 20 mM CPB-Buffer (20 mM Citric acid, 20 mM Phosphate. 20 mM Boric acid) at 55° C. Aliquots (50 μL) were stopped with 50 rel 5% TFA at the indicated time points and subjected to LC-MS analysis.
Capillary LC-MS/MS analyses were performed using an Agilent 1100 LC system (Agilent Technologies) interfaced to a LTQ Orbitrap Classic hybrid mass spectrometer (Thermo Scientific, Bremen, Germany). Samples were loaded onto a 15 cm Phenomenix Jupiter 4μ Proteo 90A, C4 analytical column. Separation was performed at a flow rate of 16 μL/min using a 10 min gradient of 0-40% Solvent B H2O/CH3CN/HCOOH (50/950/0.65 v/v/v) into the IONMAX® ion source (Thermo Scientific, San Jose). The LTQ Orbitrap Classic instrument was operated in a data-dependent MS/MS mode. The peptide masses were measured by the Orbitrap (MS scans were obtained with a resolution of 60 000 at m/z 400), and up to 2 of the most intense peptide m/z were selected and subjected to fragmentation using CID in the linear ion trap (LTQ). Dynamic exclusion was enabled with a list size of 500 masses, duration of 40 s, and an exclusion mass width of ±10 ppm relative to masses on the list.
The RAW files were accessed with the program Skyline 2.6.0.7176 (MacLean, B., et al., “Skyline: an open source document editor for creating and analyzing targeted proteomics experiments”, Bioinformatics, 2010, 26(7): p. 966-8) which uses the MS1 intensities to build chromatograms (Schilling, B., et al., “Platform-independent and label-free quantitation of proteomic data using MS1 extracted ion chromatograms in skyline: application to protein acetylation and phosphorylation”, Mol Cell Proteomics, 2012. 11(5): p. 202-14). The precursor isotopic import filter was set to a count of three, (M, M+1, and M+2) at a resolution of 60,000 and the most intense charge state was used. Peptide sequences of the substrate as well as cleavage products were typed into Skyline and intensities were calculated in each sample. […]

[4] = tested on: gluten; assay: Degree of hydrolysis of pre-hydrolysed gluten; conditions: 50° C., 20 hr
Method: as §1

[5] = tested on: Na-caseinate; assay: Degree of hydrolysis of pre-hydrolysed Na-caseinate; conditions: Casein, 50° C., 20 hr
Method: as §1

[6] = tested on: whey protein isolate (WPI); assay: Degree of hydrolysis of pre-hydrolysed whey protein isolate; conditions: 50° C., 20 hr
Method: as §1

[7] = inactivated enzyme at the highest conc.

B1: TRI031: fungal aminopeptidase type-2 (pepN_2), NCBI XP_001258675 from Neosartorya fischeri NRRL 181, expressed in Trichoderma reesei (protein)
chain: MQTFGAFLVSFLAASGLAAANGPGWDWKPPVHPKVLPQMIHLWDLMHGAQKLEDFAYAYPERNRVFGGPAHEDTVNYLYRELKKTGYYDVYKQPQVHQWTRADQALTVDGKSYVATTMTYSPSVNVTAPLAVVNNLGCVESDYPADLKGKIALVSRGECPFATKSVLSAKAGAAAALVYNNIEGSMAGTLGGPTSELGPYAPIAGISLADGQALIQMIQAGTVTANLWIDSKVENRTTYNVIAQTKGGDPNNVVALGGHTDSVEAGPGINDDGSGIISNLVVAKALTRFSVKNAVRFCFWTAEEFGLLGSSYYVNSLNATEKAKIRLYLNFDMIASPNYALMIYDGDGSAFNLTGPAGSAQIERLFEDYYKSIRKPFVPTEFNGRSDYEAFILNGIPAGGIFTGAEAIKTEEQAKLFGGQAGVALDANYHAKGDNMTNLNREAFLINSKATAFAVATYANSLDSIPSRNMSTVVKRSQLEQAKKSTPHTHTGGTGCYKDRVEQ
modifications: Synthetic peptide with leader sequence
notes: fungal aminopeptidase type-2 (pepN_2), NCBI XP_001258675 from Neosartorya fischeri NRRL 181, expressed in Trichoderma reesei
- product inhibition compared to TRI063 from A. oryzae [1]: less inhibited by product
- Degree of hydrolysis ([2]; PepN 2 stock 0.02 mg/mL): 11%
- Degree of hydrolysis ([2]; PepN 2 stock 0.03 mg/mL): 13%
- Degree of hydrolysis ([2]; PepN 2 stock 0.04 mg/mL): 14%
- Degree of hydrolysis ([2]; PepN 2 stock 0.05 mg/mL): 15%
- Degree of hydrolysis ([2]; PepN 2 stock 0.1 mg/mL): 17%
- Degree of hydrolysis ([2]; PepN 2 stock 0.15 mg/mL): 18%
- Degree of hydrolysis ([2]; PepN 2 stock 0.2 mg/mL): 19%
- Degree of hydrolysis ([2]; PepN 2 stock 0.25 mg/mL): 19%
- Degree of hydrolysis ([2]; PepN 2 stock 0.3 mg/mL): 19%
- Degree of hydrolysis ([2]; PepN 2 stock 0.35 mg/mL): 22%
- Degree of hydrolysis [2, 7]: 6%
- hydrolysis of WHWLQLKPGQPMY to KPGQPMY and further down to QPMY [3]: can hydrolyze
- Degree of hydrolysis ([4]; PepN 2 stock 0.02 mg/mL): 10%
- Degree of hydrolysis ([4]; PepN 2 stock 0.03 mg/mL): 13%
- Degree of hydrolysis ([4]; PepN 2 stock 0.04 mg/mL): 15%
- Degree of hydrolysis ([4]; PepN 2 stock 0.05 mg/mL): 14%
- Degree of hydrolysis ([4]; PepN 2 stock 0.1 mg/mL): 17%
- Degree of hydrolysis ([4]; PepN 2 stock 0.15 mg/mL): 18%
- Degree of hydrolysis ([4]; PepN 2 stock 0.2 mg/mL): 19%
- Degree of hydrolysis ([4]; PepN 2 stock 0.25 mg/mL): 19%
- Degree of hydrolysis ([4]; PepN 2 stock 0.3 mg/mL): 21%
- Degree of hydrolysis ([4]; PepN 2 stock 0.35 mg/mL): 20%
- Degree of hydrolysis [4, 7]: 4%
- Degree of hydrolysis ([5]; PepN 2 stock 0.02 mg/mL): 14%
- Degree of hydrolysis ([5]; PepN 2 stock 0.03 mg/mL): 15%
- Degree of hydrolysis ([5]; PepN 2 stock 0.04 mg/mL): 16%
- Degree of hydrolysis ([5]; PepN 2 stock 0.05 mg/mL): 20%
- Degree of hydrolysis ([5]; PepN 2 stock 0.1 mg/mL): 19%
- Degree of hydrolysis ([5]; PepN 2 stock 0.15 mg/mL): 21%
- Degree of hydrolysis ([5]; PepN 2 stock 0.2 mg/mL): 23%
- Degree of hydrolysis ([5]; PepN 2 stock 0.25 mg/mL): 22%
- Degree of hydrolysis ([5]; PepN 2 stock 0.3 mg/mL): 24%
- Degree of hydrolysis ([5]; PepN 2 stock 0.35 mg/mL): 24%
- Degree of hydrolysis [5, 7]: 8%
- Degree of hydrolysis ([6]; PepN 2 stock 0.02 mg/mL): 17%
- Degree of hydrolysis ([6]; PepN 2 stock 0.03 mg/mL): 19%
- Degree of hydrolysis ([6]; PepN 2 stock 0.04 mg/mL): 19%
- Degree of hydrolysis ([6]; PepN 2 stock 0.05 mg/mL): 21%
- Degree of hydrolysis ([6]; PepN 2 stock 0.1 mg/mL): 23%
- Degree of hydrolysis ([6]; PepN 2 stock 0.15 mg/mL): 28%
- Degree of hydrolysis ([6]; PepN 2 stock 0.2 mg/mL): 24%
- Degree of hydrolysis ([6]; PepN 2 stock 0.25 mg/mL): 26%
- Degree of hydrolysis ([6]; PepN 2 stock 0.3 mg/mL): 27%
- Degree of hydrolysis ([6]; PepN 2 stock 0.35 mg/mL): 29%
- Degree of hydrolysis [6, 7]: 8%
